# T1: Ac-PYY(PEG3-Dig) (N-terminal acetyl; Lys 2 side chain carries PEG3-digoxigenin (digoxigenin-3-carboxymethyl on 12-amino-4,7,10-trioxadodecanoic acid); Pqa at position 3; N-methyl-Arg at position 14; C-terminal amide)
# T1 construct: also called DIG-PYY; Dig-PYY
# T1 peptide: IKXRHYLNWVTRQXY
# B1: murine anti-digoxigenin antibody (hybridoma-derived) (antibody, mouse IgG1, V domains shown)
# VH: EVQLVESGGGLVKPGGSLKLSCAVSGFTFSDYAMSWIRQTPENRLEWVASINIGATYAYYPDSVKGRFTISRDNAKNTLFLQMSSLGSEDTAMYYCARPGSPYEYDKAYYSMAYWGPGTSVTVSS
# VL: DVQMTQSTSSLSASLGDRVTISCRASQDIKNYLNWYQQKPGGTVKLLIYYSSTLLSGVPSRFSGRGSGTDFSLTITNLEREDIATYFCQQSITLPPTFGGGTKLEIK
# notes: also called murine hybridoma-derived antibody
# Biological target: T1, Ac-PYY(PEG3-Dig)
# Assay: size exclusion chromatography and SEC-MALS of the non-covalent complex
# Experimental: After completion of the complexation reaction, the complexes were purified by size exclusion chromatography via a Superdex 200 26/60 GL column (320 ml) in 20 mM histidine, 140 mM NaCl, at pH 6.0 at a flow rate of 2.5 ml/min. […] Polypeptide and antibody were incubated for 1.5 hrs. at room temperature. The excess of polypeptide was removed by size exclusion chromatography via a Superose 6 10/300 GL column in 20 mM histidine, 140 mM NaCl, at pH 6.0 at a flow rate of 0.5 ml/min.
# For SEC-MALS analysis, 100-500 μg of the respective sample was applied to a Superdex 200 10/300 GL size exclusion column with a flow rate of 0.25-0.5 ml/min with 1×PBS pH 7.4 as mobile phase. Light scattering was detected with a Wyatt miniDawn TREOS/QELS detector, the refractive index was measured with a Wyatt Optilab rEX-detector. Resulting data was analyzed using the software ASTRA (version 5.3.4.14).
binder,measurement,value
B1,binding result,binds
